How the values were obtained:
[1] = target: T1, TNFRSF9 protein (also referred to as CD137 protein) (Homo sapiens (Human), UniProt Q07011 24-186); assay: ELISA on coated TNFRSF9, CHO-S expression supernatant diluted 100-fold
T1 construct: also called recombinant TNFRSF9 protein

[2] = target: T1, TNFRSF9 protein (also referred to as …); assay: indirect ELISA, purified antibody on coated recombinant TNFRSF9 (0.5 ug/ml)

B1: rabbit monoclonal antibody 4C2-WTH before humanization (antibody, human IgG1, V domains shown)
VH: QSVEESGGRLVTPGTPLTLTCTVSGFSLGTFPIGWVRQAPGSGLEWIGIFNTDGSAAYASWARGRFTVFKNSTTVDLKMTSPTTEDTATYFCARINADYSGWYFGIWGPGTLVTVSS
VL: EMTQTPASVEVAVGGTVTIKCQASQSIYSYLAWYQQKPGQPPKPLIYEASKTPSGVPSRFKGSGSGTEYTLTISGVQCEDAATYYCQKGYSVSNVAFGGGTEVVVKR
notes: As tested it is a chimera: the original rabbit variable regions with the human IgG1 constant region, expressed from pcDNA3.4 in CHO-S cells; also called wild-type antibody; anti-CD137 rabbit antibody
OD450 (100-fold dilution) [1]: 3.33 OD450
EC50 [2]: 3.8 ng/mL

— patent EP4567818A1 (Nanjing GenScript Biotech Co., Ltd., dated 2025)
